According to patent US20020160949A1 (WHITEHEAD INSTITUTE FOR BIOMEDICAL RESEARCH, published 2002):

What was measured:
murine IL-7Rα = target: T1, murine IL-7Rα (murine, UniProt P16872 21-459); test: affinity labeling of transfected 293 cells with 125I-TSLP, DSS cross-linking, SDS-PAGE
T1 construct: whole, on cells; Expressed alone on transfected 293 cells; also called murine IL-7Rα alone
T1 sequence (looked up): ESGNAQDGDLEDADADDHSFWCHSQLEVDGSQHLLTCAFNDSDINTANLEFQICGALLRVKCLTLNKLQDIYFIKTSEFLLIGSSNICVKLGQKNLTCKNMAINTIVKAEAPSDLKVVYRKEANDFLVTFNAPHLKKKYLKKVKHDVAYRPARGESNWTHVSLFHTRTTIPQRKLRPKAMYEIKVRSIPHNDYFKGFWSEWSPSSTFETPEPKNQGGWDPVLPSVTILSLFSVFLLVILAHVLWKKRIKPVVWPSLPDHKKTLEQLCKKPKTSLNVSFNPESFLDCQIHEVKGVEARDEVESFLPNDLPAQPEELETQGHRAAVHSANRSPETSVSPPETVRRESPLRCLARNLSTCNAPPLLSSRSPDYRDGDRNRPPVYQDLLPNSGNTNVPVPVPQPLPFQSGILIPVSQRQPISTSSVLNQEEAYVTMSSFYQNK
Method: The binding of TSLP to TSLPR polypeptide in the presence of IL-7Rα was examined in affinity labeling assays. Affinity labeling assays were performed by adding 1-5 nM of ¹²⁵I-labeled TSLP to 5×10⁶ 293 cells transfected with expression constructs for murine IL-7Rα, murine TSLPR polypeptide, murine IL-7Rα and murine TSLPR polypeptide, or human IL-7Rα and murine TSLPR polypeptide. Iodinated TSLP was prepared by adding IODO-GEN (Pierce, Rockford, Ill.) and 2 mCi ¹²⁵I to 1 μg of TSLP. A specific activity of approximately 200-300 μCi/μg was obtained by this method. Prior to affinity labeling, 293 cells were transiently transfected using the calcium phosphate method (Eppendorf-5 Prime, Boulder, Colo.). Following a 2 hour incubation with ¹²⁵I-TSLP, cells were cross-linked with 0.1 mg/ml disuccinimidyl suberate (Pierce), lysed in lysis buffer, and the lysates resolved by SDS-PAGE.

[1] = target: T2, TSLP receptors constitutively expressed on NAG8/7 cells; test: displacement binding of 125I-TSLP by unlabeled TSLP on NAG8/7 cells, Scatchard transformation
T2 construct: also called single class of receptors
T2 sequence (Q8CII9 20-359): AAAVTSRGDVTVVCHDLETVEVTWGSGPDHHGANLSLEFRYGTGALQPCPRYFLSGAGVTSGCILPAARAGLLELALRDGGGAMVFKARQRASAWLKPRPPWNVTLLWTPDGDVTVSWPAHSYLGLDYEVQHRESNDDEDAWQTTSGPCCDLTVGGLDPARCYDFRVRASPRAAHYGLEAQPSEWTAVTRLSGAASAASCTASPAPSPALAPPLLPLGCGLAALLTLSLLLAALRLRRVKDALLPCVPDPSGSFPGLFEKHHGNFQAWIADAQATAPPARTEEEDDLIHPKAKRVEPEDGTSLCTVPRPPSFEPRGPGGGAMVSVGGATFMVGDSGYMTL
Method: The binding of TSLP to 293 cells transfected with murine IL-7Rα and murine TSLPR polypeptide, or murine IL-7Rα alone, was analyzed in a displacement binding assay. Following two washes, 1×10⁶transfected 293 cells were incubated in a constant amount of ¹²⁵I-labeled TSLP (approximately 20,000 cpm) and varying amounts of unlabeled TSLP. Following a 3 hour incubation, treated cells were separated from the medium by centrifugation in olive oil and N-butylphthalate. Cell-bound radioactivity was measured using a gamma counter.
Analysis of binding data by Scatchard transformation was performed using the LIGAND computer program (Munson and Rodbard, 1980, Anal. Biochem. 107:220-39). […] Due to the very low binding activity of TSLP for cells expressing TSLPR polypeptide alone, it was not possible to determine the Kd for these cells. Displacement binding assays were also performed using NAG8/7 cells, which constitutively express TSLP receptors and proliferate in response to TSLP (Friend et al., supra; Levin et al., supra). In these displacement binding assays, 5×10⁶ NAG8/7 cells were incubated in a constant amount of ¹²⁵I-labeled TSLP (approximately 180,000 cpm) and varying amounts of unlabeled TSLP. The remainder of the assay was performed as described herein.

B1: Thymic stromal lymphopoietin (TSLP) (ligand, UniProt Q9JIE6 20-140, looked up)
chain: YNFSNCNFTSITKIYCNIIFHDLTGDLKGAKFEQIEDCESKPACLLKIEYYTLNPIPGCPSLPDKTFARRTREALNDHCPGYPETERNDGTQEMAQEVQNICLNQTSQILRLWYSFMQSPE
In the case of B1, the binding result (murine IL-7Rα) is reported as “no binding (tested: 1-5 nM of 125I-labeled TSLP)” and the Kd [1] is reported as roughly 2.2 nM.
